The record followed here is patent publication US20250109177A1, “EVOLVED PROTEIN DEGRONS” (The Broad Institute, Inc., priority 2022, published 2025).

Where no end group is shown, it is not given here.

The test addresses CRBN of HEK293T cells, with PT-179 (human) (UniProt Q96SW2). Put plainly: cell-based or functional assay.

Sequence of CRBN of HEK293T cells, with PT-179 (human) (Q96SW2 whole entry): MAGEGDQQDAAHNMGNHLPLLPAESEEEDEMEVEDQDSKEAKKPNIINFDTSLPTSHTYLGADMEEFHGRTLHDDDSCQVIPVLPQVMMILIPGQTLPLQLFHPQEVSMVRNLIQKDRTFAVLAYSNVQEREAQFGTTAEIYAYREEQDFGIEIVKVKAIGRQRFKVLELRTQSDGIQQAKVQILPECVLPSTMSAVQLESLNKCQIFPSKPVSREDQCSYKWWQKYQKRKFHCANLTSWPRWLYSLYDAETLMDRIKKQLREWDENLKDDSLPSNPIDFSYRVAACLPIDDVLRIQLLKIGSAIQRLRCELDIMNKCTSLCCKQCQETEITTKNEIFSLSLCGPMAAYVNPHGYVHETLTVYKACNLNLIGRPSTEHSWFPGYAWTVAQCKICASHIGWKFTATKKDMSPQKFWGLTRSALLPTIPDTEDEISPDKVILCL

B1: SD40-eGFP (degron fused to the N-terminus of eGFP) (designed binder, not shown: large carriers)
chain: LLLFCPICGFTCRQKGNLLRHINLHTGEKLFKYHLY-eGFP
modifications: cysteine pairing not given here
The molecule B1 displayed a DC50 of PT-179-induced degradation of degron-tagged eGFP in HEK293T cells of 5 nM.

B2: SD36-tagged eGFP (degron fused to the N-terminus of eGFP) (designed binder, not shown: large carriers)
chain: FNVLMVHKRSHTGELLLFCPICGFTCRQKGNLLRHINLHTGEKLFKYHLYNYACQRRDAL-eGFP
modifications: cysteine pairing not given here
Molecule B2 returned a DC50 of PT-179-induced degradation of degron-tagged eGFP in HEK293T cells of 14 nM.
